These are literature values, as cited in publication PMC5179943.

This series concerns the target LRP2/Megalin (Homo sapiens) (UniProt P98164). The experiment in a line: solid phase binding assay.

pKd: −log10 of the molar value.

Sequence of UniProt P98164 (P98164 26-4423): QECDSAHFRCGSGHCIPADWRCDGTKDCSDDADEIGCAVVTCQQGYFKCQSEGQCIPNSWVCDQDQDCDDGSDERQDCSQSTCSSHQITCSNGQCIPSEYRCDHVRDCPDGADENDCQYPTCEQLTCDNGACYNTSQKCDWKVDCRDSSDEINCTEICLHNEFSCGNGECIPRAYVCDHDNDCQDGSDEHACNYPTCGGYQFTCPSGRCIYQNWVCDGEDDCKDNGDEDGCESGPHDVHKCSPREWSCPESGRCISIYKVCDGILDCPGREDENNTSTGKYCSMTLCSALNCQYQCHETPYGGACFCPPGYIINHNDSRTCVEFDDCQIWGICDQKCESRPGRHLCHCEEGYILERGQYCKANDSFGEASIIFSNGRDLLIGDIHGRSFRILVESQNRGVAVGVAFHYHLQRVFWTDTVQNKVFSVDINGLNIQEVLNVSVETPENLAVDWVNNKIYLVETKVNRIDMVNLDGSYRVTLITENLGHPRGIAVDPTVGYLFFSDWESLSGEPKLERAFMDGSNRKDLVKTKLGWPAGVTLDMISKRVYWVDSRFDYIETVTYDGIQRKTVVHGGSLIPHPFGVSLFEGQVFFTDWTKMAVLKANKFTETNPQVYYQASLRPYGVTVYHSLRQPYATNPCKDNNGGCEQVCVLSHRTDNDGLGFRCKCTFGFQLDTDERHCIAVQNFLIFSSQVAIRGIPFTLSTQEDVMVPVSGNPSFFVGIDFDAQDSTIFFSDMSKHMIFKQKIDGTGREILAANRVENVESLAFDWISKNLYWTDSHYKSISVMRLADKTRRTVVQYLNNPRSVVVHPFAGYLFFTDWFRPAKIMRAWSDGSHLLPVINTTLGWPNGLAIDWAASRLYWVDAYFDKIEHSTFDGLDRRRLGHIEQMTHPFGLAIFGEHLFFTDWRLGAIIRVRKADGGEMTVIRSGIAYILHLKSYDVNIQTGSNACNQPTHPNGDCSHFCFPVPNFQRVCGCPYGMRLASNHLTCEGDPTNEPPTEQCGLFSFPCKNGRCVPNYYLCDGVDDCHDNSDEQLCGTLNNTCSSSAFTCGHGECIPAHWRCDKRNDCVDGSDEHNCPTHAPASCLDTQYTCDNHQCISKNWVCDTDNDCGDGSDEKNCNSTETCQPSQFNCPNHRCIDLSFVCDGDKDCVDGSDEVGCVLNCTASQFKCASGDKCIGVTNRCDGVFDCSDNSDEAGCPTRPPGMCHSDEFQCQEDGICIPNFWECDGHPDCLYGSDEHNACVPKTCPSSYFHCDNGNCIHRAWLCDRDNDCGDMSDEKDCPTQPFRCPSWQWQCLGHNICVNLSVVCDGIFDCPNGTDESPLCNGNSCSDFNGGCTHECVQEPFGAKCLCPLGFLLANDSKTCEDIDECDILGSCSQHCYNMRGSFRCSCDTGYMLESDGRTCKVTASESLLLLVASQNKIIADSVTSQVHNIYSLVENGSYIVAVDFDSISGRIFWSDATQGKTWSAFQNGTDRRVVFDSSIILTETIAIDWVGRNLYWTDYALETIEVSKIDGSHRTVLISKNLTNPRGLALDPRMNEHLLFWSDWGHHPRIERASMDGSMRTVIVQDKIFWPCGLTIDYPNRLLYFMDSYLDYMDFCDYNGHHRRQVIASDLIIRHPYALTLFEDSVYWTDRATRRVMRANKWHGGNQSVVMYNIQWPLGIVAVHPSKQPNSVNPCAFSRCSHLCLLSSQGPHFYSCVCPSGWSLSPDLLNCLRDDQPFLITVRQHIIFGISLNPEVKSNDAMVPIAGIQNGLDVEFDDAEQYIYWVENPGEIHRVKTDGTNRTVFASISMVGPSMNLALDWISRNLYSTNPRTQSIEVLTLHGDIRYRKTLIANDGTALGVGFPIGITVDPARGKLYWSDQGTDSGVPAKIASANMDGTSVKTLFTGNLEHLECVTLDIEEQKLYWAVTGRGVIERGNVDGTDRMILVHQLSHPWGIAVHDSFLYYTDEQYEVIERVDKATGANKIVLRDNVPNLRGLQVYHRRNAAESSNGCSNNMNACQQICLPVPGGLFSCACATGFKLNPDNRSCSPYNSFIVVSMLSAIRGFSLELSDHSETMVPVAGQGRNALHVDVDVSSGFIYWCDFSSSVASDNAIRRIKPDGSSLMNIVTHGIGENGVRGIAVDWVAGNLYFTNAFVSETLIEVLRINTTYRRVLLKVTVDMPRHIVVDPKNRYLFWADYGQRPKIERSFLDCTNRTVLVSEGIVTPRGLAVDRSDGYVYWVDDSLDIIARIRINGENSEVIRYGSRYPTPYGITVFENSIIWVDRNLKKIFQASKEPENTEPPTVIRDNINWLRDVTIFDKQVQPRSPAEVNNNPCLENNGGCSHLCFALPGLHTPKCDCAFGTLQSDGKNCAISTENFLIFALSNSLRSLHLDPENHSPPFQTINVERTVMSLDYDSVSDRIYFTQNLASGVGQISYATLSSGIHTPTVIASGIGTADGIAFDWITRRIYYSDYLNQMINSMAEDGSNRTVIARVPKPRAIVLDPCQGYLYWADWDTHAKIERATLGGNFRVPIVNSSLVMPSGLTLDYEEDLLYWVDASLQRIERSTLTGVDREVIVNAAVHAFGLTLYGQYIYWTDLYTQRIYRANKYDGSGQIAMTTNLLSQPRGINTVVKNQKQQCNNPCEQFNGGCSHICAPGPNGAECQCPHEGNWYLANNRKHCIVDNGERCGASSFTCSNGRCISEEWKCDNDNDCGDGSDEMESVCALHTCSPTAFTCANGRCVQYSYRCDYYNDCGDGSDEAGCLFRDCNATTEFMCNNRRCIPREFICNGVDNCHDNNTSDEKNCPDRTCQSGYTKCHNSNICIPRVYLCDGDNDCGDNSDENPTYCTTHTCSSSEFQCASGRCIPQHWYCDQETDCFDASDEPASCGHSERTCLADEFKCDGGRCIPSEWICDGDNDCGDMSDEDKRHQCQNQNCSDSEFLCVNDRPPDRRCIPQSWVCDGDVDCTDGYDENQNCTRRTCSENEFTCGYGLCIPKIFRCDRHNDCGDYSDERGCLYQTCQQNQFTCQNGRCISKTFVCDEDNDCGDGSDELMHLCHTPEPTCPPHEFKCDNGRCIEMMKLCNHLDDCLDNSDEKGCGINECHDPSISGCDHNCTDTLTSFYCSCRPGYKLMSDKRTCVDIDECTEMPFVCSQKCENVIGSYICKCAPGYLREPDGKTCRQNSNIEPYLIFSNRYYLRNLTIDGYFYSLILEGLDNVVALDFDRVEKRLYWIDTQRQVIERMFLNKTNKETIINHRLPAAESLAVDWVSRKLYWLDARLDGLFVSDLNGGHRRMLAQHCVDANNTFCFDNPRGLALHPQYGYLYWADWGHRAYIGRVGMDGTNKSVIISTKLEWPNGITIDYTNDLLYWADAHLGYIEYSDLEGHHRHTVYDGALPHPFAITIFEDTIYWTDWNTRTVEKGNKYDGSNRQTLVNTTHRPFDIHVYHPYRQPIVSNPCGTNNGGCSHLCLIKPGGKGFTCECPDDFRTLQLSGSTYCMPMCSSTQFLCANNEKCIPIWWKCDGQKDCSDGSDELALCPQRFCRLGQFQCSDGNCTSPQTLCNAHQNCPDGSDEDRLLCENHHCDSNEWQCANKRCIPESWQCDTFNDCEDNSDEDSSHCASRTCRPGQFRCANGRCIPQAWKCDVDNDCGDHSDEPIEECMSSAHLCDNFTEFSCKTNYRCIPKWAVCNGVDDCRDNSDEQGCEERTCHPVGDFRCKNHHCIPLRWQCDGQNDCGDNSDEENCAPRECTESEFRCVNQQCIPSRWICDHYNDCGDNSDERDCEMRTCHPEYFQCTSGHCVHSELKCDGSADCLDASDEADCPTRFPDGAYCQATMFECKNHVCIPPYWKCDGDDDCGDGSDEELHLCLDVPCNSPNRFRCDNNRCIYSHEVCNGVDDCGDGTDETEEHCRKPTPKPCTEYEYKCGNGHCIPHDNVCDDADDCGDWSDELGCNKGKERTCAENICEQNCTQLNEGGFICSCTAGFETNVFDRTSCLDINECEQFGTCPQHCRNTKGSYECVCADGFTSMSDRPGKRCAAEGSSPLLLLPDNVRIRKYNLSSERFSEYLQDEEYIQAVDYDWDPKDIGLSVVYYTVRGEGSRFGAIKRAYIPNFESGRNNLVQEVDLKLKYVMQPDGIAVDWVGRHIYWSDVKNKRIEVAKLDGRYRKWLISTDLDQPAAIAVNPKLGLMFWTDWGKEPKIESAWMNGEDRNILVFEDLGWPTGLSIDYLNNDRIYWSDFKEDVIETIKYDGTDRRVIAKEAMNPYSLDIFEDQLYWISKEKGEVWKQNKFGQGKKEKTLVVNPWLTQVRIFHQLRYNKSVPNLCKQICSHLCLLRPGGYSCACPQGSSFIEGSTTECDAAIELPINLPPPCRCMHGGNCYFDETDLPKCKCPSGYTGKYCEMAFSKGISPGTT

As to Clusterin (from UniProt P10909), the pKd was 7.85.
